Source: US20160130324A1 (SHIRE HUMAN GENETIC THERAPIES, published 2016)

Experiments:
rhC1s [1] = target: T1, rhC1s (human, UniProt P09871 16-688); experiment: inhibition of rhC1s cleavage of a colorimetric peptide substrate, average OD; concentrations from gel estimated sizes; C is the midpoint of the 4-parameter fit [panel B]
T1 construct: Enzyme of the colorimetric peptide cleavage assay; Human is read from the printed label 'rhC1s'
T1 sequence (looked up): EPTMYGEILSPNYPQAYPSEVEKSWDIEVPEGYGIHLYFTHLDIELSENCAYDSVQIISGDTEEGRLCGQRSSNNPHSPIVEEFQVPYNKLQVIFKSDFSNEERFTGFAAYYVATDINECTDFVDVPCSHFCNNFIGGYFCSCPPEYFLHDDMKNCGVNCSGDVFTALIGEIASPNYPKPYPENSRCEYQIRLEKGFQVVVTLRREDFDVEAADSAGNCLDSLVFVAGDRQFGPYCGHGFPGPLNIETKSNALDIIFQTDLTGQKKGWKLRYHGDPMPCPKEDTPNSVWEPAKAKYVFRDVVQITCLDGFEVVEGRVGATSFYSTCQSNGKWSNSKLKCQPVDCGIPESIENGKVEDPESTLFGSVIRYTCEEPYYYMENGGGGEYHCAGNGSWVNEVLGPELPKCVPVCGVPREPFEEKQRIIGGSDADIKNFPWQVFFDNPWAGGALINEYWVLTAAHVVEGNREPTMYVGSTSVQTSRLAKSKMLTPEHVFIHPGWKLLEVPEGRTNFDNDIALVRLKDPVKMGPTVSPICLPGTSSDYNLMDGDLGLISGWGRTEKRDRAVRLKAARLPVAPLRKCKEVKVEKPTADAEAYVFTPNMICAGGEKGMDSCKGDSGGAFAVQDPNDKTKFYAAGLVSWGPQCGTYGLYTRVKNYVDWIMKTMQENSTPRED

rhC1s [2] = target: T1, rhC1s; experiment: inhibition of rhC1s cleavage of a colorimetric peptide substrate, average OD; concentrations from mass spec sizes; C is the midpoint of the 4-parameter fit [panel A]
rhC1s [3] = target: T1, rhC1s; experiment: inhibition of C1s cleavage of a colorimetric peptide substrate, mean OD value; C is the midpoint of the 4-parameter fit
biotin-C1s = target: T2, biotin-C1s; experiment: functional ELISA of the C1s/C1-INH complex: diluted C1-INH with biotin-C1s, captured on a streptavidin plate, anti-C1-INH-HRP, OD450; C is the midpoint of the 4-parameter fit
T2 construct: Used in the functional ELISA that measures the C1s/C1-INH complex
T2 sequence (P09871 16-688, species assumed, looked up): T1 sequence (looked up)
Protocol: This method was used to test the effector dead Fc constructs made for PK studies FIG. 8. The ELISA protocol was as follows: [0334] 60 μL diluted C1-INH+12 μL biotin-C1s [0335] 30 min incubation at RT [0336] Transfer 50 μL of complexes to streptavidin coated plate [0337] 10 min incubation at RT, wash 5× [0338] Add 50 μL of anti-C1-INH-HRP [0339] 60 min incubation at RT, wash 5× [0340] Add 100 μL of TMB substrate [0341] 15 minute incubation at RT [0342] […] Read at OD450

B1: R&D rhC1inh (other, human, UniProt P05155 23-500, looked up)
single chain: NPNATSSSSQDPESLQDRGEGKVATTVISKMLFVEPILEVSSLPTTNSTTNSATKITANTTDEPTTQPTTEPTTQPTIQPTQPTTQLPTDSPTQPTTGSFCPGPVTLCSDLESHSTEAVLGDALVDFSLKLYHAFSAMKKVETNMAFSPFSIASLLTQVLLGAGENTKTNLESILSYPKDFTCVHQALKGFTTKGVTSVSQIFHSPDLAIRDTFVNASRTLYSSSPRVLSNNSDANLELINTWVAKNTNNKISRLLDSLPSDTRLVLLNAIYLSAKWKTTFDPKKTRMEPFHFKNSVIKVPMMNSKKYPVAHFIDQTLKAKVGQLQLSHNLSLVILVPQNLKHRLEDMEQALSPSVFKAIMEKLEMSKFQPTLLTLPRIKVTTSQDMLSIMEKLEFFDFSYDLNLCGLTEDPDLQVSAMQHQTVLELTETGVEAAAASAISVARTLLVFEVQQPFLFVLWDQQHKFPVFMGRVYDPRA
notes: commercial R&D Systems preparation; also called hSerpin G1 (R&D Systems)
IC50 (rhC1s [1]): 1.76 nM
IC50 (rhC1s [2]): 1.76 nM

B2: recombinant C1-INH (other, UniProt P05155 23-500, looked up)
chain: B1 single chain
IC50 (rhC1s [3]): 1.14 nM

B3: plasma-derived C1-INH (other)
chain: B1 single chain
notes: Purified from plasma and glycosylated
EC50 (biotin-C1s): 4.58 nM
IC50 (rhC1s [3]): 1.83 nM
IC50 (rhC1s [1]): 2.01 nM
IC50 (rhC1s [2]): 2.01 nM
